Reference: patent US20180022809A1 (VENTANA MEDICAL SYSTEMS, published 2018)
No end group written: not given here.

How the values were obtained:
[1] = target: human programmed death-ligand 1 (PD-L1) (human) (UniProt Q9NZQ7); test: IHC on FFPE tissue sections of 119 NSCLC cases
[2] = target: T1, peptide fragment of the cytoplasmic region (amino acid residues 279-290) of human PD-L1 (human, not fully specified); test: ELISA screen on the PD-L1 peptide antigen
T1 construct: For immunization, Cys-Gly was appended to the N-terminus and the peptide was conjugated to KLH; also called PD-L1 antigen
T1 peptide: SKKQSDTHLEET

human programmed death-ligand 1 (PD-L1) (human), sequence (Q9NZQ7 19-290 limits assumed): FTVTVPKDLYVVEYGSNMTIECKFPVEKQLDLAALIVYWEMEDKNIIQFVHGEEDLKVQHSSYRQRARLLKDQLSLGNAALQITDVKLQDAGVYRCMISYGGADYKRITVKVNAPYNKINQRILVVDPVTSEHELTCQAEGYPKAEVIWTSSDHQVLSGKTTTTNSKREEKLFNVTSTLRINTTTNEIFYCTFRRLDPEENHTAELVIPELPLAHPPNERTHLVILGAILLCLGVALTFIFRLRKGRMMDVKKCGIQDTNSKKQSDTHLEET

Row | binding result [2] | Molecule | mean H score (extent of membrane immunoreactivity) (H score (range 0 to 300)) [1]
1 | – | anti-PD-L1 antibody E1L3N (Cell Signaling Technology) | 56
2 | binds | anti-PD-L1 antibody SP142 (antibody, V domains shown, the constant regions are not; also called rabbit anti-human PD-L1 (SP142) monoclonal antibody) VH: QSLEESGGRLVKPDETLTITCTVSGIDLSSNGLTWVRQAPGEGLEWIGTINKDASAYYASWAKGRLTISKPSSTKVDLKITSPTTEDTATYFCGRIAFKTGTSIWGPGTLVTVSS VL: AIVMTQTPSPVSAAVGGTVTINCQASESVYSNNYLSWFQQKPGQPPKLLIYLASTLASGVPSRFKGSGSGTQFTLTISGVQCDDAATYYCIGGKSSSTDGNAFGGGTEVVVR | –
